Assay [1] addresses T1, Human MerTK on hMerTK-expressing cells (human, UniProt Q12866 21-999).
T1 sequence: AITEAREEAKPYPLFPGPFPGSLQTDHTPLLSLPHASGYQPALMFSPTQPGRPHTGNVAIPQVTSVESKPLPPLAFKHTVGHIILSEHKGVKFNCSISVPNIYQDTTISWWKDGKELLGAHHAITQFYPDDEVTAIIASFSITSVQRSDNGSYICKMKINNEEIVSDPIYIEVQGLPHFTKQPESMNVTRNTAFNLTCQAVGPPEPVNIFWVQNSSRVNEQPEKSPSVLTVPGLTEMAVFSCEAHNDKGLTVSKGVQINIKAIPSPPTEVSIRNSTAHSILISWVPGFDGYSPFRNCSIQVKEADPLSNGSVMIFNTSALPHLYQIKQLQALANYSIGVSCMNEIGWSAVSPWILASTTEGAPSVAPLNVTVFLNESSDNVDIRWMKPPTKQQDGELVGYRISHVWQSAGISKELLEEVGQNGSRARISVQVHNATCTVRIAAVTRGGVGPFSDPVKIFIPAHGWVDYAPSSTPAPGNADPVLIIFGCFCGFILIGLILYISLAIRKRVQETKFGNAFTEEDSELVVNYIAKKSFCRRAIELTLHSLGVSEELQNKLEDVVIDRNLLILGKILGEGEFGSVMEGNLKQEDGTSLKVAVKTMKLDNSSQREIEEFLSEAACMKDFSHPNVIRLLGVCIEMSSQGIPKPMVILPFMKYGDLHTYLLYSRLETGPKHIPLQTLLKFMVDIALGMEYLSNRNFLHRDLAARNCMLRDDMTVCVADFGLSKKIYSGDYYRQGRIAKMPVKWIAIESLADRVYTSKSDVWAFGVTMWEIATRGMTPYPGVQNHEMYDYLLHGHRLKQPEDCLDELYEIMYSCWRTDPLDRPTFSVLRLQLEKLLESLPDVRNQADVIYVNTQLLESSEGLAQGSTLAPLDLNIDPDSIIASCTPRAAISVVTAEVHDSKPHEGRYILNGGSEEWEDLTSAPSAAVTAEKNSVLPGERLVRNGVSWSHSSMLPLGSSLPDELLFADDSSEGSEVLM
The assay is described as follows: cell-based or functional assay.

The target of assay [2] is T2, Mouse MerTK on mMerTK-expressing cells (mouse, UniProt Q60805 19-994).
T2 construct: Receptor construct of the signaling assay is not described
T2 sequence: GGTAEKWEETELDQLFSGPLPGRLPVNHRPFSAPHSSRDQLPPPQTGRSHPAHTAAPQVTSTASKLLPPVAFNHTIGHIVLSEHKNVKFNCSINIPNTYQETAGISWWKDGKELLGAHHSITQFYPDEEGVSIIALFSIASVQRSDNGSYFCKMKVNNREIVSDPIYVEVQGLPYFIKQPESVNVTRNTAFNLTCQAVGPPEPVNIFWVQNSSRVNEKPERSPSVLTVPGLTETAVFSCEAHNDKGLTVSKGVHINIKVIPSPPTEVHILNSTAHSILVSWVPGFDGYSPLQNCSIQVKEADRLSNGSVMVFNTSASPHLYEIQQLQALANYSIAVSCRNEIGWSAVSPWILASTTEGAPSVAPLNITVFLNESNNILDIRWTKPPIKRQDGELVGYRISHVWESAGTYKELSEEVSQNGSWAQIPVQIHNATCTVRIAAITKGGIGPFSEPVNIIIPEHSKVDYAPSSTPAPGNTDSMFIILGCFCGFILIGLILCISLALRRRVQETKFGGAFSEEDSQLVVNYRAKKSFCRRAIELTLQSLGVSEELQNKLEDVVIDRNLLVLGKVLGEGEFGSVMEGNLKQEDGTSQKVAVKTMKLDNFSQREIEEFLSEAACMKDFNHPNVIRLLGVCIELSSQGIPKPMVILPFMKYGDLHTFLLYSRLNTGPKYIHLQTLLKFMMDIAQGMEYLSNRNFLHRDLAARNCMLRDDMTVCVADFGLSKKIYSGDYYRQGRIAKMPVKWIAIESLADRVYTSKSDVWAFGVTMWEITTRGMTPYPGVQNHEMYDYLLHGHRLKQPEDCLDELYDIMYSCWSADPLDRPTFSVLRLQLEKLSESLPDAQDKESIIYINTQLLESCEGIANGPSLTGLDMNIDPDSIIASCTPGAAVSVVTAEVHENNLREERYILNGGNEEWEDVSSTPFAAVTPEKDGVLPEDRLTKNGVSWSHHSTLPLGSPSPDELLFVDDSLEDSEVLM
The assay is described as follows: binding to mMerTK-expressing cells; SPR not run.

Assay [3] has as its target T3, Recombinant soluble extracellular domain of cynomolgus monkey MerTK (cynomolgus monkey, UniProt Q12866 21-505 (human entry)).
T3 construct: SPR analyte; also called cMerTK; Cynomolgus MerTK
T3 chain: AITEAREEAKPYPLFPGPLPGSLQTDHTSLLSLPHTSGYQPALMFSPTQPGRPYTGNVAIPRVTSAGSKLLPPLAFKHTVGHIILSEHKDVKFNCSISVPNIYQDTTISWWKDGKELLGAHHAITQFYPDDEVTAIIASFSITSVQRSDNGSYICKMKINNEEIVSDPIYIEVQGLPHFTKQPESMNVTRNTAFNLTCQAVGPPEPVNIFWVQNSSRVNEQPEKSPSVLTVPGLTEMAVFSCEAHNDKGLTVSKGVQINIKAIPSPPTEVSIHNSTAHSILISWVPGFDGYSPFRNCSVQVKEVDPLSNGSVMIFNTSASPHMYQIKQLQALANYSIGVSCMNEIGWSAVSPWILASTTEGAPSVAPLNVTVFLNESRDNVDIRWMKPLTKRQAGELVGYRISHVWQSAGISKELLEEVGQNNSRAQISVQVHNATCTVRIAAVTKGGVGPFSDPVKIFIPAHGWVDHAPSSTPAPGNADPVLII
The assay is described as follows: SPR, mAb captured, soluble MerTK ECD as analyte, 37 C. As to the method:
MerTK Abs were captured on the chip. Recombinant soluble forms of the extracellular domains of human, cynomolgus monkey, and mouse MerTK polypeptide were injected as analytes at multiple concentrations each. The resulting sensorgrams were double-referenced and fitted to a 1:1 Langmuir binding model with mass transport.

Experimental findings from patent publication US20210395392A1 (Bristol-Myers Squibb, published 2021) are described below.

B1: HuMAb 1B4 (antibody, human IgG1, kappa, V domains shown)
VH: QLQLQESGPGLVKPSETLSLTCAVSGYSISSGNYWGWIRQSPGKGLEWIGSVDHSGSTYYSPSLKSRVTISVDTSKNQFSLKLNSVTAADTADYYCARNTMIRGVMDWFDPWGQGTLVTVSS
VL: AIQLTQSPSSLSASVGDRVTITCRASQGISSALAWYQQKPGKAPKVLIYDASSLESGVPSRFSGSGSGTDFTLTISSLQPEDFATYYCQQFRSYPTFGQGTKVEIKR
notes: Human anti-hMerTK mAb, Bin 1
In general, Kd refers to a measure of binding affinity in units of concentration. By koff is commonly meant the rate constant with which the complex falls apart. In general, kon refers to the rate constant with which the complex forms. For the molecule B1, in assay [1], the “Inhibition of Efferocytosis IC50” value came out at 0.072 nM; the “Signaling Assay, hMerTK with Gas6, pSTAT1 IC50 (nM)” value (“Signaling Assay, hMerTK with Gas6” below) worked out at 0.33 nM; the “Signaling Assay, hMerTK without Gas6, pSTAT1 IC50 (nM)” value (“Signaling Assay, hMerTK without Gas6” below) is over 100 nM. The binding result in assay [2] is given as “no binding”. In assay [3], the equilibrium dissociation constant (Kd) was 54.9 nM, the koff stood at 0.00796 s⁻¹, the kon turned out to be 145000 M⁻¹ s⁻¹ and the t1/2 amounted to 1.5 min.

B2: HuMAb 22I16 (antibody, human IgG1, kappa, V domains shown)
VH: EVQLVESGGGLVQPGGSLRLSCAASGFTFSSYSMNWVRQAPGKGLEWVSYIISGSDTIFYADSVKGRFTISRDNAKNSLYLQMNSLRDEDTAVYYCARDETVVRGVINYFDYWGQGTLVTVSS
VL: AIQLTQSPSSLSASVGDRVTITCRSSQGISSALAWYQQKPGKAPKLLIYDASSLESGVPSRFSGSGSGTDFTLTISSLQPEDFATYYCQQFISYPTFGQGTRLEIKR
notes: Human anti-hMerTK mAb, Bin 1; also called 22116
As for B2, in assay [1], the “Inhibition of Efferocytosis IC50” value was found to be 0.352 nM; the “Signaling Assay, hMerTK with Gas6” value came to 3.41 nM; the “Signaling Assay, hMerTK without Gas6” value is over 100 nM. In addition, the binding result in assay [2] is given as “no binding”. In assay [3], the Kd amounted to 24.7 nM, the koff was determined as 0.00126 s⁻¹, the on-rate constant (kon) stood at 50900 M⁻¹ s⁻¹ and the t1/2 was 10.2 min.

B3: HuMAb 8N42 (antibody, V domains shown)
VH: QVQLQQWGAGLLKPSETLSLTCAVYGGSFSIYYWSWIRQPPGKGLELIGEINDEGNTNYNPSLKSRVTISVDTSKNQFSLKLSSVTAADTAVYYCARGGTGDIHAFDIWGQGTMVTVSS
VL: DIQMTQSPSSLSASVGDRVTITCRASQGISKWLAWYQQKPEKAPKSLIYAASSLQSGVPSRFSGSGSGTDFTLTISSLQPEDFATYYCQQYNSYPWTFGQGTKVEIKR
notes: Human anti-hMerTK mAb, Bin 1
For B3, in assay [1], the “Inhibition of Efferocytosis IC50” value amounted to 0.047 nM; the “Signaling Assay, hMerTK with Gas6” value is 0.572 nM; the “Signaling Assay, hMerTK without Gas6” value was over 100 nM. For the same molecule, the binding result in assay [2] is reported as “no binding”. For the same molecule, in assay [3], the Kd amounted to 14 nM, the off-rate constant (koff) was found to be 0.0014 s⁻¹, the association rate constant (kon) is 100000 M⁻¹ s⁻¹ and the t1/2 was found to be 8.3 min.

B4: HuMAb 4K10 (antibody, human IgG1, kappa, V domains shown)
VH: QVQLQQWGAGLLKPSETLSLTCAVYGGSFSGYYWSWLRQPPGKGLEWIGEISHSGSTNYNPSLKSRVTISVDTSKNQFSLKLSSVTAADTAVYYCARALSRYWYFDLWGRGTLVTVSS
VL: EIVLTQSPATLSLSPGERATLSCRASQSASNYLAWYQQKPGQAPRLLIYDASNRATGIPARFSGSGSGTDFTLTISSLEPEDFAVYYCYQRSQWPISFGQGTRLEIKR
notes: Human anti-hMerTK mAb, Bin 3
In the case of B4, in assay [1], the “Inhibition of Efferocytosis IC50” value was over 10 nM and the “Signaling Assay, hMerTK with Gas6” value turned out to be 5.42 nM. Besides, the binding result in assay [2] is reported as “no binding”. For the same molecule, in assay [3], the Kd stood at 31.3 nM, the koff came to 0.00379 s⁻¹, the on-rate constant (kon) stood at 121000 M⁻¹ s⁻¹ and the t1/2 stood at 3 min.

B5: HuMAb 25J60 (antibody, human IgG1, kappa, V domains shown)
VH: QVQLVQSGAEVKKPGASVKVSCKTSGNTQIRYYMYWVRQAPGQGLEWMGILNPNQDQTTYAQKFQGRVTMTRDTSTSTVYMELSSLRSEDTAVYYCATTYRYYMDVWGQGTTVTVSS
VL: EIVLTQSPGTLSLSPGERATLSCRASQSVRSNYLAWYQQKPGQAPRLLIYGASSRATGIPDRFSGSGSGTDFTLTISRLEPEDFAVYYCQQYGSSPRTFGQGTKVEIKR
notes: Human anti-hMerTK mAb, Bin 2, derived from HuMAb 25B10 by optimization
In the case of B5, in assay [1], the “Inhibition of Efferocytosis IC50” value stood at 0.051 nM; the “Signaling Assay, hMerTK with Gas6” value was determined as 0.093 nM; the “Signaling Assay, hMerTK without Gas6” value is over 100 nM. The binding result in assay [2] was “no binding”. Further, in assay [3], the Kd was determined as 2.5 nM, the koff was found to be 0.00099 s⁻¹, the kon was found to be 400000 M⁻¹ s⁻¹ and the t1/2 stood at 11.7 min.

B6: HuMAb 25J80 (antibody, human IgG1, kappa, V domains shown)
VH: QVQLVQSGAEVKKPGASVKVSCKTSGRTFIRYYMHWVRQAPGQGLEWMGIIWPNGDQTTYAQKFQGRVTMTRDTSTSTVYMELSSLRSEDTAVYYCATTYKYAMDVWGQGTTVTVSS
VL: EIVLTQSPGTLSLSPGERATLSCRASQSVRSNYLAWYQQKPGQAPRLLIYGASSRATGIPDRFSGSGSGTDFTLTISRLEPEDFAVYYCQQYESPPRTFGQGTKVEIKR
notes: as for B5
B6: in assay [1], the “Inhibition of Efferocytosis IC50” value stood at 0.093 nM; the “Signaling Assay, hMerTK with Gas6” value came out at 0.227 nM; the “Signaling Assay, hMerTK without Gas6” value is over 100 nM. Besides, the binding result in assay [2] was “no binding”. For the same molecule, in assay [3], the Kd came to 4.5 nM, the koff stood at 0.00124 s⁻¹, the kon was determined as 274000 M⁻¹ s⁻¹ and the t1/2 was 4.5 min.
